One block for each substance: values may come before it.
Columns and labels:
[1] = target: PilB from Geobacter metallireducens (PilB^Gm) (Geobacter metallireducens); experiment: cryo-EM structure; PilB^Gm 0.6 mg/ml without added nucleotide, 4 °C; 2D class averages and 7.8 Å 3D map, CCOCCO conformation
[2] = target: PilT4 from Geobacter metallireducens (PilT^Gm) (Geobacter metallireducens GS-15); experiment: crystal structure; PilT^Gm with 2 mM ATP and 2 mM MgCl2; 9% PEG4000, 100 mM MES pH 6, 200 mM MgCl2; 20 °C; 1.9 Å; CCCCCC conformation
[3] = target: PilT4 from Geobacter metallireducens (PilT^Gm) (Geobacter metallireducens GS-15); experiment: cryo-EM structure; PilT^Gm 0.5 mg/ml incubated 10 min at 4 °C with 1 mM MgCl2 plus 1 mM ATP; 4.4 Å map, CCCCCC conformation; 2D class averages also with 1 mM ATP plus 0.1 or 1 mM ADP
[4] = target: PilT4 from Geobacter metallireducens (PilT^Gm) (Geobacter metallireducens GS-15); experiment: crystal structure; PilT^Gm with 2 mM ANP and 2 mM MgCl2; 2% benzamidine-HCl, 100 mM HEPES-HCl pH 7.9, 200 mM ammonium acetate, 17.5% PEG3350; 20 °C; anisotropic 4.1, 6.7 and 4.0 Å; CCOCCO conformation
[5] = target: PilT4 from Geobacter metallireducens (PilT^Gm) (Geobacter metallireducens GS-15); experiment: cryo-EM structure; PilT^Gm 0.5 mg/ml without added nucleotide, 4 °C; untilted 2D class averages and 40° tilted 3D maps (OCOCOC 4.0 Å, OOCOOC 4.1 Å); 2D class averages also with 1 mM MgCl2 plus 0.1 or 1 mM ADP
[6] = target: PilT4 from Geobacter metallireducens (PilT^Gm) (Geobacter metallireducens GS-15); experiment: crystal structure; PilT^Gm without added nucleotide (partial-occupancy ADP, pH 7.1, 3.0 Å) or preincubated with Mg2+ and ATP and unbound nucleotide removed (full-occupancy ADP, pH 7.6); 11.5% PEG3350, 200 mM L-proline, 100 mM HEPES; 20 °C; OCOCOC conformation, pseudo-C3
[7] = target: reductively methylated PilT4 from Geobacter metallireducens (methylated PilT^Gm) (Geobacter metallireducens GS-15); experiment: crystal structure; methylated PilT^Gm, no added nucleotide; vapor diffusion 20 °C; 200 mM ammonium sulfate, 100 mM Bis-Tris-HCl pH 6.5, 25% PEG3350; 3.3 Å; OCOCOC conformation

- stoichiometry N [1]: 6
Substance: PilB from Geobacter metallireducens (PilB^Gm) (enzyme)

- stoichiometry N [2]: 6
- stoichiometry N [3]: 6
- stoichiometry N [4]: 6
- stoichiometry N [5]: 6
- stoichiometry N [6]: 6
Substance: PilT4 from Geobacter metallireducens (PilT^Gm) (enzyme)

- stoichiometry N [7]: 6
Substance: reductively methylated PilT4 from Geobacter metallireducens (methylated PilT^Gm) (enzyme)
